biological target: Sulfolobus acidocaldarius SRP54 (Sulfolobus acidocaldarius) (UniProt O07853); experiment: FRET or BRET
Sequence of UniProt O07853 (O07853 whole entry): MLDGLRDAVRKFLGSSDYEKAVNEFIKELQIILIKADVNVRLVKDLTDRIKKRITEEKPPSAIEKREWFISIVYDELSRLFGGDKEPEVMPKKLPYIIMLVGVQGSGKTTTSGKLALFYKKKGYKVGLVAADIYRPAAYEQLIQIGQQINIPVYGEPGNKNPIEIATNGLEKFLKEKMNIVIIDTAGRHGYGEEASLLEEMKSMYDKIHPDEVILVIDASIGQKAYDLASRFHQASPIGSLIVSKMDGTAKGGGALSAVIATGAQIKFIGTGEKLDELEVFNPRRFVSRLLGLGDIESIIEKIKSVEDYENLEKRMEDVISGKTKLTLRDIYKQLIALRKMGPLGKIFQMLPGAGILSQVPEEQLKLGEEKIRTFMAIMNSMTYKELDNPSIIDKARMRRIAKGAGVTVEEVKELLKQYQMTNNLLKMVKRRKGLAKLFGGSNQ

Kd [nM] | Substance
75 | FtsYΔαN1 (Tyr87-Ser369) (from UniProt P27414 87-369) (domain or fragment)
114 | FtsYΔαN2 (Ser109-Ser369) (from UniProt P27414 109-369) (domain or fragment)
272 | FtsYΔαN3 (Gly129-Ser369) (from UniProt P27414 129-369) (domain or fragment)

Source: publication doi:10.1101/2022.04.13.488184
